Results reported in the supplement of paper PMC9112550, “Optimization of the antimicrobial peptide Bac7 by deep mutational scanning” (BMC Biology, 2022).

System: Escherichia coli TOP10
Assay: shrunken log2 fold change of peptide-encoding DNA abundance (4.5 h post-induction vs induction); higher = less antimicrobial activity (less host growth inhibition)
Conditions: time post-induction: 4.5 h; library: site-saturation at positions 5, 18, 19, 20
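Also: peptides expressed intracellularly from a pBAD plasmid library in pooled LB shake-flask culture, induced with 0.3% L-arabinose, DNA abundance read by NGS, three biological replicates, DESeq2 with apeglm shrinkage.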

Sequence	shrunken log2 fold change
RRIRERPPRLPRPRPRPLEDPRP	-0.157
RRIRHRPPRLPRPRPRPGPLPRP	0.0825
RRIRMRPPRLPRPRPRPNMPPRP	-0.286
RRIRMRPPRLPRPRPRPGPTPRP	1.54
RRIRCRPPRLPRPRPRPSCAPRP	-0.0944
RRIRFRPPRLPRPRPRPGWSPRP	0.114
RRIRKRPPRLPRPRPRPSDYPRP	-0.08
RRIRSRPPRLPRPRPRPDKSPRP	-0.2
RRIRFRPPRLPRPRPRPPMVPRP	-0.391
RRIRFRPPRLPRPRPRPKSVPRP	0.0124
RRIRLRPPRLPRPRPRPQGHPRP	0.137
RRIRMRPPRLPRPRPRPSVKPRP	0.185
RRIRHRPPRLPRPRPRPPNIPRP	-0.157
RRIRYRPPRLPRPRPRPCLEPRP	0.139
RRIRQRPPRLPRPRPRPAVFPRP	-0.0406
RRIRMRPPRLPRPRPRPHCPPRP	-0.506
RRIRTRPPRLPRPRPRPIHNPRP	-0.714
RRIRMRPPRLPRPRPRPNEEPRP	-0.0651
RRIRQRPPRLPRPRPRPMHPPRP	0.203
RRIRPRPPRLPRPRPRPYVEPRP	-0.415
RRIRYRPPRLPRPRPRPNHFPRP	-0.0628
RRIRCRPPRLPRPRPRPGNAPRP	0.185
RRIRFRPPRLPRPRPRPHKNPRP	-0.389
RRIRFRPPRLPRPRPRPDGRPRP	0.023
RRIRLRPPRLPRPRPRPGIQPRP	-0.0773

Sequence	shrunken log2 fold change
RRIRKRPPRLPRPRPRPAFIPRP	0.129
RRIRSRPPRLPRPRPRPTANPRP	0.293
RRIRCRPPRLPRPRPRPYLAPRP	-0.44
RRIRRRPPRLPRPRPRPWWCPRP	4.82
RRIRERPPRLPRPRPRPLWPPRP	0.0539
RRIRNRPPRLPRPRPRPQNTPRP	-0.589
RRIRKRPPRLPRPRPRPKKKPRP	0.0709
RRIRTRPPRLPRPRPRPGEWPRP	0.0179
RRIRTRPPRLPRPRPRPIFNPRP	-0.608
RRIRKRPPRLPRPRPRPDEMPRP	0.188
RRIRFRPPRLPRPRPRPWRNPRP	-0.133
RRIRSRPPRLPRPRPRPQMVPRP	-0.102
RRIRMRPPRLPRPRPRPDIMPRP	2.19
RRIRKRPPRLPRPRPRPWWYPRP	-0.127
RRIRGRPPRLPRPRPRPDCMPRP	0.909
RRIRFRPPRLPRPRPRPPGDPRP	0.58
RRIRDRPPRLPRPRPRPQMHPRP	0.156
RRIRGRPPRLPRPRPRPVTNPRP	0.735
RRIRKRPPRLPRPRPRPVSWPRP	0.821
RRIRQRPPRLPRPRPRPFNYPRP	-0.304
RRIRCRPPRLPRPRPRPFRFPRP	-0.83
RRIRWRPPRLPRPRPRPFTRPRP	-0.00433
RRIRSRPPRLPRPRPRPNMCPRP	-0.138
RRIRDRPPRLPRPRPRPWCMPRP	-1
RRIRMRPPRLPRPRPRPANAPRP	0.442

Sequence	shrunken log2 fold change
RRIRKRPPRLPRPRPRPHYRPRP	0.0224
RRIRPRPPRLPRPRPRPMRNPRP	0.905
RRIRVRPPRLPRPRPRPGGFPRP	0.211
RRIRTRPPRLPRPRPRPRIDPRP	-0.0699
RRIRQRPPRLPRPRPRPYLMPRP	-1.39
RRIRVRPPRLPRPRPRPAVFPRP	0.265
RRIRTRPPRLPRPRPRPGARPRP	0.212
RRIRDRPPRLPRPRPRPVGHPRP	0.423
RRIRYRPPRLPRPRPRPWQPPRP	-0.274
RRIRCRPPRLPRPRPRPCRVPRP	-0.438
RRIRERPPRLPRPRPRPTHCPRP	-0.115
RRIRRRPPRLPRPRPRPPTLPRP	0.739
RRIRHRPPRLPRPRPRPTACPRP	0.074
RRIRARPPRLPRPRPRPWPRPRP	0.992
RRIRIRPPRLPRPRPRPIRHPRP	-0.0741
RRIRNRPPRLPRPRPRPCGTPRP	-0.139
RRIRTRPPRLPRPRPRPYPAPRP	-0.277
RRIRARPPRLPRPRPRPKTGPRP	0.427
RRIRGRPPRLPRPRPRPVINPRP	0.199
RRIRSRPPRLPRPRPRPDYYPRP	-0.831
RRIRYRPPRLPRPRPRPETSPRP	0.014
RRIRARPPRLPRPRPRPVDTPRP	0.186
RRIRERPPRLPRPRPRPFWIPRP	-0.165
RRIRSRPPRLPRPRPRPMGHPRP	-0.256
RRIRLRPPRLPRPRPRPENIPRP	-0.519

Sequence	shrunken log2 fold change
RRIRHRPPRLPRPRPRPMNTPRP	-0.616
RRIRKRPPRLPRPRPRPPHYPRP	0.176
RRIRERPPRLPRPRPRPLVMPRP	-0.0346
RRIRYRPPRLPRPRPRPAQRPRP	-0.0772
RRIRFRPPRLPRPRPRPYHPPRP	-0.58
RRIRLRPPRLPRPRPRPKEGPRP	-0.0145
RRIRKRPPRLPRPRPRPFNRPRP	-0.203
RRIRCRPPRLPRPRPRPDRSPRP	0.208
RRIRGRPPRLPRPRPRPMQDPRP	0.108
RRIRSRPPRLPRPRPRPSGIPRP	-0.169
RRIRQRPPRLPRPRPRPASCPRP	0.182
RRIRYRPPRLPRPRPRPHYMPRP	-1.45
RRIRLRPPRLPRPRPRPGNCPRP	-0.0913
RRIRLRPPRLPRPRPRPDPGPRP	-0.146
RRIRRRPPRLPRPRPRPAMSPRP	0.157
RRIRLRPPRLPRPRPRPTYKPRP	-0.244
RRIRARPPRLPRPRPRPSPAPRP	0.616
RRIRQRPPRLPRPRPRPFGSPRP	-0.156
RRIRIRPPRLPRPRPRPLGGPRP	0.00908
RRIRQRPPRLPRPRPRPEGRPRP	0.00666
RRIRFRPPRLPRPRPRPADVPRP	0.258
RRIRVRPPRLPRPRPRPQDSPRP	-0.069
RRIRVRPPRLPRPRPRPIAEPRP	0.127
RRIRKRPPRLPRPRPRPEIPPRP	-0.00514
RRIRGRPPRLPRPRPRPEETPRP	1.51

Sequence	shrunken log2 fold change
RRIRMRPPRLPRPRPRPKTGPRP	0.895
RRIRNRPPRLPRPRPRPEPQPRP	1
RRIRERPPRLPRPRPRPYLEPRP	-0.271
RRIRVRPPRLPRPRPRPGTNPRP	-0.254
RRIRDRPPRLPRPRPRPQNRPRP	-0.28
RRIRLRPPRLPRPRPRPEHIPRP	0.0843
RRIRKRPPRLPRPRPRPKSCPRP	0.00967
RRIRGRPPRLPRPRPRPFYHPRP	-0.102
RRIRGRPPRLPRPRPRPFDLPRP	-0.24
RRIRSRPPRLPRPRPRPKLMPRP	-0.125
RRIRIRPPRLPRPRPRPAKTPRP	0.0509
RRIRCRPPRLPRPRPRPSLWPRP	-0.0313
RRIRERPPRLPRPRPRPWIAPRP	-0.0555
RRIRMRPPRLPRPRPRPHMTPRP	0.342
RRIRLRPPRLPRPRPRPLPGPRP	0.781
RRIRDRPPRLPRPRPRPLVWPRP	0.831
RRIRHRPPRLPRPRPRPTFGPRP	0.0378
RRIRFRPPRLPRPRPRPEKCPRP	0.00859
RRIRTRPPRLPRPRPRPCTEPRP	-0.237
RRIRWRPPRLPRPRPRPQPNPRP	0.127
RRIRDRPPRLPRPRPRPKTRPRP	0.533
RRIRTRPPRLPRPRPRPYNCPRP	-0.168
RRIRGRPPRLPRPRPRPIALPRP	0.16
RRIRTRPPRLPRPRPRPSYKPRP	-0.594
RRIRHRPPRLPRPRPRPTSGPRP	-0.0493

Sequence	shrunken log2 fold change
RRIRHRPPRLPRPRPRPAGSPRP	-0.0875
RRIRYRPPRLPRPRPRPPMHPRP	-0.418
RRIRDRPPRLPRPRPRPMLYPRP	-0.0839
RRIRDRPPRLPRPRPRPQYSPRP	-0.028
RRIRGRPPRLPRPRPRPAMQPRP	1.05
RRIRSRPPRLPRPRPRPKEVPRP	-0.00238
RRIRERPPRLPRPRPRPLIMPRP	-0.781
RRIRCRPPRLPRPRPRPGMCPRP	0.125
RRIRGRPPRLPRPRPRPNKTPRP	-0.0264
RRIRGRPPRLPRPRPRPAQEPRP	0.547
RRIRDRPPRLPRPRPRPALFPRP	0.99
RRIRERPPRLPRPRPRPWEAPRP	0.74
RRIRVRPPRLPRPRPRPWELPRP	-0.487
RRIRLRPPRLPRPRPRPQCMPRP	0.0865
RRIRWRPPRLPRPRPRPFTQPRP	-0.0585
RRIRARPPRLPRPRPRPQGRPRP	0.104
RRIRRRPPRLPRPRPRPARPPRP	0.703
RRIRPRPPRLPRPRPRPWPQPRP	0.0953
RRIRDRPPRLPRPRPRPFAHPRP	0.228
RRIRTRPPRLPRPRPRPELMPRP	0.0498
RRIRYRPPRLPRPRPRPHHQPRP	-1.06
RRIRSRPPRLPRPRPRPTNQPRP	-0.311
RRIRERPPRLPRPRPRPCKNPRP	-0.121
RRIRVRPPRLPRPRPRPIIQPRP	-0.28
RRIRARPPRLPRPRPRPCGDPRP	-0.239
